Test results as given in KR20140018819A (dated 2014).
Changes are numbered by the printed parent chain.

Biological target: T1, TM4SF5 (transmembrane 4 L six family member 5) 단백질 (human, UniProt O14894 1-197)
T1 sequence (looked up): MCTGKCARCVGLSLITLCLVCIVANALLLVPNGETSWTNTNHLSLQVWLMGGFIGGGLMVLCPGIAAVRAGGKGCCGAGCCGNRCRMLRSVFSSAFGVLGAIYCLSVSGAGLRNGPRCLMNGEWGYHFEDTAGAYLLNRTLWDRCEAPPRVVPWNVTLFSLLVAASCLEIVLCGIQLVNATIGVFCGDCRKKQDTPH
Assay: cell-based or functional assay

B1: 항-TM4SF5 항체 #1 (scFv-Fc) (Fc fusion)
VH: EVQLQQFGAELVRPGASVTLSCKASGYTFTDYEMHWVKQTPVHGLEWIGAIDPETGGTAYNQKFKGKAILTADKSSSTAYMELRSLTSEDSAVYFCARLTLFYGNYDWPFDVWGTGTSVTVSS
VL: DIVMTQSQKFMSTSVGDRVSITCKASQNVRTAVAWYQQKPGQSPKLLIYWASTRHTGVPDRFTGSGSGTDFTLTISNVQSEDLADYFCQQYSSYPFTFGSGTKLEIK
How did the “간암세포주의 침윤 억제 (Transwell assay, Tp 세포, 항체 20㎍/㎖, 48시간)” value turn out when B1 was run?
Its value is 83%.

B2: 항-TM4SF5 항체 #27 (scFv-Fc) (Fc fusion)
VH: QVQLQQFGAELVRPGASVTLSCKASGYTFTDYEMHWVKQTPVHGLEWIGAIDPETGGTAYNQKFKGKAILTADKSSSTAYMELRSLTSEDSAVYYCTRPYLGYWGQGTTVTVSS
VL: DAVVTQTPLSLPVSLGDQASISCRSSQSLVHSNGNTYLHWYLQKPGQSPKLLIYKVSNRFSGVPDRFSGSGSGTDFTLKISRVEAEDLGVYYCFQGSHIPLTFGAGTKLELK
B2 was tested. Which “간암세포주의 침윤 억제 (Transwell assay, Tp 세포, 항체 20㎍/㎖, 48시간)” value did it give?
The value was 56%.

B3: 항-TM4SF5 항체 #79 (scFv-Fc) (Fc fusion)
VH: B2 VH with Q1G, F7S, T19K, R98V, P99Y, Y100G, G102A, T109L, S114A
VL: B2 VL with A2V, V4M, Y92F, F94S, G96N, S97T, I99V, L101Y, A105G
How did the “간암세포주의 침윤 억제 (Transwell assay, Tp 세포, 항체 20㎍/㎖, 48시간)” value turn out when B3 was run?
The value was 49%.
